The record followed here is patent US20210052630A1, “Methods and Compositions for Preventing or Treating Heart Disease” (Macau University of Science and Technology, priority 2019, published 2021).

Assay type in all cases: cell-based, Rat
Series [1] concerns H9C2 cells. The series can be described thus: MTT cell viability assay, H9C2 cells exposed to hypoxia/reoxygenation (H/R) injury. To be noted: for cell viability (growth and proliferation of cardiomyocytes) under hypoxia/reoxygenation: 50 nM RNA, vs H/R group, FIG. 3B; for cardioprotective effect (cell viability), concentration series: 100, 50, 25, 12.5 nM, FIG. 4A/4B. The protocol:
(§1) H9C2 cell lines were cultured in Dulbecco's Modified Eagle Medium (DMEM) containing 10% FBS and 1% penicillin/streptomycin at humidified atmosphere containing 5% CO2 at 37° C.
In the cell viability assay or mitochondrial viability assay, exponentially growing cells of H9C2 cell line were plated in 96-well microplate at a density of 5000 cells per well in 100 μL of culture medium and allowed to adhere for 24 h before treatment. For hypoxia, hypoxic treatment was achieved by exposing cells to KRB buffer (composition in: NaCl 115 mM, KCl 4.7 mM, CaCl2 2.5 mM, KH2PO4 1.2 mM, MgSO4 1.2 mM, NaHCO3 24 mM, HEPES 10 mM; pH 7.4) at 37° C. for 3 hr in an oxygen-free hypoxic chamber (Stem Cell Technologies, United States), serial concentrations of RNA molecules obtained in Example 1 were then added to the cells […]. For hypoxia/reoxygenation (H/R), Hypoxic treatment was achieved by exposing cells in glucose-free DMEM under conditions of 94.9% N2/5% CO2/0.1% O2 for 12 hr at a hypoxystation (whitley H35 hypoxystation, Don Whitley Scientific Ltd., England), serial concentrations of RNA molecules obtained in Example 1 and 2 were then added to the cells and reoxygenation by incubating in the normoxic condition (95% air/5% CO2) at 37° C. for 6 hr. After hypoxia or hypoxia/reoxygenation, MTT solution (100 μL per well, 0.5 mg/mL solution) or mitochondrial viability stain solution (follow the manufacture's instruction) was added to each well and incubated for 4 h at 37° C. Subsequently, for cell viability assay, 150 μL dimethyl sulfoxide (DMSO) were added and the optical densities of the resulting solutions were calorimetrically determined at 570 nm using a SpectraMax Paradigm multi-mode microplate reader (Molecular Devices, Sunnyvale, Calif., U.S.A). For mitochondrial viability assay, fluorescence detected at 550 nm excitation and 590 nm emission using SpectraMax Paradigm multi-mode microplate reader. Dose-response curves were obtained and calculated by GraphPad Prism 6 (GraphPad, La Jolla, Calif., USA). Each experiment was carried out for three times and expressed as means±standard deviation.

The subject of series [2] is H9C2 cells. The series can be described thus: Mitochondrial viability assay, H9C2 cells exposed to hypoxia/reoxygenation (H/R) injury. As to conditions: 300, 100, 30, 3 nM (FIG. 7A/7B). On the procedure: as §1
(§2) In the cell viability assay or mitochondrial viability assay, exponentially growing cells of H9C2 cell line were plated in 96-well microplate at a density of 5000 cells per well in 100 μL of culture medium and allowed to adhere for 24 h before treatment. […] Subsequently, for cell viability assay, 150 μL dimethyl sulfoxide (DMSO) were added and the optical densities of the resulting solutions were calorimetrically determined at 570 nm using a SpectraMax Paradigm multi-mode microplate reader (Molecular Devices, Sunnyvale, Calif., U.S.A). For mitochondrial viability assay, fluorescence detected at 550 nm excitation and 590 nm emission using SpectraMax Paradigm multi-mode microplate reader. Dose-response curves were obtained and calculated by GraphPad Prism 6 (GraphPad, La Jolla, Calif., USA). Each experiment was carried out for three times and expressed as means±standard deviation.

For a further series, the system named is H9C2 cell cytoskeleton. Put plainly: Cytoskeleton imaging (Rhodamine Phalloidin/DAPI, confocal) of H9C2 cells after H/R injury. As to conditions: 900, 300, 100, 30, 10, 3, 0.3 nM, FIG. 8A/8B. The protocol: H9C2 cells were plated in p-slide 8 well plate (Ibidi GmbH, Germany) at a density of 10000 cells per well in 200 μL of culture medium and allowed to adhere for 24 h before treatment. Hypoxic treatment was achieved by exposing cells in glucose-free DMEM under conditions of 94.9% N2/5% CO2/0.1% O2 for 12 hr at a hypoxystation (whitley H35 hypoxystation, Don Whitley Scientific Ltd., England), serial concentrations of RNA molecules obtained in Example 2 were then added to the cells and reoxygenation by incubating in the normoxic condition (95% air/5% CO2) at 37° C. for 6 hr. After hypoxia/reoxygenation, cells were stained with Rhodamine Phalloidin and DAPI following the manufacturer's instruction. Images were acquired on a Leica TCS SP8 Confocal Microscopy with a 20× objective.

The test system of series [3] is H9C2 cells. Put plainly: MTT cell viability assay, H9C2 cells under H/R injury, RNA transfected with DharmaFECT4. To be noted: 300, 100, 30 nM, vs H/R+DharmaFECT4 group, FIG. 11A/11B. On the procedure: FIG. 11A is a bar chart showing the cell viability of H9C2 cells exposed to hypoxia/reoxygenation (H/R) injury after treatment with RNA molecule HC50 at different concentrations, i.e. 300 nM, 100 nM and 30 nM, by transfected with DharmaFECT4 transfection reagent, compared to a control group, a H/R along with DharmaFECT4 treated group in accordance with an example embodiment (mean±SD n=3; **, p<0.01, vs. vehicle H/R+ DharmaFECT4; ####, p<0.0001 vs. vehicle control). […]
as §2
Background: Tetrazolium dyes change colour on reduction, which living cells bring about.

A further series deals with H9C2 cell line. The series can be described thus: MTT cell viability assay, H9C2 cells exposed to hypoxia injury. As to conditions: 300 nM RNA, H9C2, hypoxia 3 hr, vs hypoxia group, FIG. 3A.

As to “HC50: double-stranded RNA, sense SEQ ID NO: 2 and antisense SEQ ID NO: 234, 19 base pairs (sense GCGGAUGUAGCCAAGUGGA; antisense UCCACUUGGCUACAUCCGC; cholesterol-conjugated double-stranded RNA, conjugate position not given here)”, the “cell viability (growth and proliferation of cardiomyocytes), screen of synthesized RNA molecules” value in the series with H9C2 cells [1] (300 nM, H9C2, H/R, FIG. 5A/5B) was “effective in promoting the growth and proliferation of cardiomyocytes”. Also, the “cell viability, protective effect against H/R injury, concentration series” value in the series with H9C2 cells [1] (900, 300, 30, 3, 0.3 nM, H9C2, FIG. 6A/6B) is listed as “dose-dependent protective effect against hypoxia/reoxygenation (H/R) injury”. The “mitochondrial viability, protective effect against H/R injury, concentration series” value in the series with H9C2 cells [2] is “dose-dependent protective effect against hypoxia/reoxygenation (H/R) injury”. Also, the “protective effect on cytoskeleton destruction” value in the series on H9C2 cell cytoskeleton was “significantly relieve cytoskeleton destruction of H9C2 cells caused by hypoxia/reoxygenation (H/R) injury in a dose-dependent manner”. In addition, the “cell viability (growth and proliferation of cardiomyocytes), transfected with DharmaFECT4” value in the series with H9C2 cells [3] was “promoted the growth and proliferation of cardiomyocytes against hypoxia/reoxygenation (H/R) injury in a dose-dependent manner”.

B1: CGCGGAGUAGAGCAGUUUGGUAGCUCGCAAGGCUCAUAACCUUGAGGUCACGGGUUCAAAUCCUGUCUCCGCAACCA (nucleic acid)
chain: CGCGGAGUAGAGCAGUUUGGUAGCUCGCAAGGCUCAUAACCUUGAGGUCACGGGUUCAAAUCCUGUCUCCGCAACCA
modifications: expressed or natural sequence
notes: tRNA isolated from Panax ginseng C; A. Mey; 77 mer
Take B1: the “cell viability (growth and proliferation of cardiomyocytes) under hypoxia” value in the series with H9C2 cell line was “capable to promote the growth and proliferation of cardiomyocytes”.

B2: GCGGAUAUAGUCGAAUGGUAAAAUUUCUCUUUGCCAAGGAGAAGACGCGGGUUCGAUUCCCGCUAUCCGCCCCA (nucleic acid)
chain: GCGGAUAUAGUCGAAUGGUAAAAUUUCUCUUUGCCAAGGAGAAGACGCGGGUUCGAUUCCCGCUAUCCGCCCCA
modifications: expressed or natural sequence
notes: tRNA isolated from Panax ginseng C; A. Mey; 74 mer
As for B2, the “cell viability (growth and proliferation of cardiomyocytes) under hypoxia” value with H9C2 cell line is “capable to promote the growth and proliferation of cardiomyocytes”. For the same molecule, in the series with H9C2 cells [1] (H9C2, H/R), the “cell viability (growth and proliferation of cardiomyocytes) under hypoxia/reoxygenation” value is “capable to promote the growth and proliferation of cardiomyocytes”; the “cardioprotective effect (cell viability), concentration series” value is “significant cardioprotective effects in a dose-dependent manner”.

B3: GCGGAUGUAGCCAAGUGGAUCAAGGCAGUGGAUUGUGAAUCCACCAUGCGCGGGUUCAAUUCCCGUCGUUCGCCCCA (nucleic acid)
chain: GCGGAUGUAGCCAAGUGGAUCAAGGCAGUGGAUUGUGAAUCCACCAUGCGCGGGUUCAAUUCCCGUCGUUCGCCCCA
modifications: expressed or natural sequence
notes: as for B1
For the molecule B3, in the series on H9C2 cells [1] (H9C2, H/R), the “cell viability (growth and proliferation of cardiomyocytes) under hypoxia/reoxygenation” value is “capable to promote the growth and proliferation of cardiomyocytes”; the “cardioprotective effect (cell viability), concentration series” value is “significant cardioprotective effects in a dose-dependent manner”.
